The test has as its target T1, cata_human CAT (UniProt P04040).
T1 sequence: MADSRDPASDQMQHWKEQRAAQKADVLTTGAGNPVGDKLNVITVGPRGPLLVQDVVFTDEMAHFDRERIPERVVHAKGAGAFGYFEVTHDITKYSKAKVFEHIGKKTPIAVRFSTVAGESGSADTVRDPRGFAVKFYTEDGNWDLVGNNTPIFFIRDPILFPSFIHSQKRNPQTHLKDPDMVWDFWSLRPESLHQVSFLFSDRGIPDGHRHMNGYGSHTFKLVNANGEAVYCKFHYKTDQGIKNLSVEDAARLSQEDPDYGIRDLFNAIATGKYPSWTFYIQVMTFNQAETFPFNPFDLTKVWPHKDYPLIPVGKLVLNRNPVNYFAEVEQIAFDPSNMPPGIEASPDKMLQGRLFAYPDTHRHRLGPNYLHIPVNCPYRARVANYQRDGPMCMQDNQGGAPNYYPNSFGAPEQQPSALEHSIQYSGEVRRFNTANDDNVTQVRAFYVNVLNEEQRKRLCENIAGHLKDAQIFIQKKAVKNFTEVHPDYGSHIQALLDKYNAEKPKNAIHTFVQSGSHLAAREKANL

Take “Ras-related protein Rab-14 (Homo sapiens) (from UniProt P61106) Q70N”: the “effect of a mutation on the interaction” value is listed as “increasing interaction”.

For the origin of these results see IntAct's records for PubMed 23333653.
